The values below come from patent publication US20220380425A1, “ANGPTL3 BASED VACCINE FOR THE TREATMENT OF LIVER DISEASE” (CADILA HEALTHCARE LIMITED, priority 2019, published 2022).

The labels stand for the following.
T1: ANGPTL3 (Homo sapiens, UniProt Q9Y5C1)
T1 construct: In humans, Evinacumab (a therapeutic mAb developed against ANGPTL3) caused a dose-dependent reduction; host or cells: human subjects (circulating endogenous protein)
T1 sequence (Q9Y5C1 17-460): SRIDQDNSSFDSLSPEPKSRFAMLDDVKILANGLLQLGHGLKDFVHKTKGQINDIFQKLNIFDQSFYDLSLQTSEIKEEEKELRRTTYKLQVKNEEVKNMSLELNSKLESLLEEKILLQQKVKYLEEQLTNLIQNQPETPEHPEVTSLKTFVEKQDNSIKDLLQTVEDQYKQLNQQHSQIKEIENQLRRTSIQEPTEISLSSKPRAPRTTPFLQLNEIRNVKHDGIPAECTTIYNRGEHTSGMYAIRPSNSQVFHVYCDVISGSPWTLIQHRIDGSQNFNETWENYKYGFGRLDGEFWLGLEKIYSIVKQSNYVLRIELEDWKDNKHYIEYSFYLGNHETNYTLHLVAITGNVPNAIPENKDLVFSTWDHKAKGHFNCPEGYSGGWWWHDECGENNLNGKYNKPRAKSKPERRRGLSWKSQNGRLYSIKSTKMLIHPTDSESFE

Square brackets hold non-standard residues; d marks the D form. Ends that are not written are not given here. APPA = 2-aminophenyl pentanoic acid; hArg = N=C(N)NCCCC[C@H](N)C(=O)O; Cit = NC(=O)NCCC[C@H](N)C(=O)O; Nle = CCCC[C@H](N)C(=O)O; Aib = CC(C)(N)C(=O)O

The first assay addresses T1, ANGPTL3.
Experiment: not given
The settings on record: humans, dose-dependent; cited from earlier work.
On to Evinacumab, for which the “reduction in LDL cholesterol levels” value is reported as “up to 23%” and the “reduction in fasting triglyceride levels” value is “up to 76%”.

A further assay has as its system Anti-ANGPTL3 polyclonal antibody (ABC83, Sigma). Kind of assay: Affinity determination of peptides with anti-ANGPTL3 antibody by surface plasmon resonance (Biacore T200). Format: binding. The settings on record: SPR, peptide 1 mM in 1×PBS over immobilized anti-ANGPTL3 pAb, 25° C., response 5 s before end of injection. How it is done: Affinity of novel peptides of the present invention with anti-ANGPTL3 antibody ‘ANG’ was analysed by surface plasmon resonance (SPR), using a Biacore instrument (Biacore T200, GE Healthcare). SPR experiments were performed at […] with a BIACORE T200 apparatus (GE Healthcare, Uppsala, Sweden).
Surface Preparation: (Procedure for Antibody immobilization) Series S Sensor Chip CM5 surface was activated by a 7-min injection of EDC-NHS. Anti-ANGPTL3 polyclonal antibody (ABC83, Sigma), diluted to 4.5 μg/mL in 10 mM acetate buffer (pH 4.0), was immobilized on one of the four flow cells of a Series S Sensor Chip CM5 with the aim of 10000 RU (resonance units) using amine-coupling. The surface was blocked with 1M ethanolamine (pH 8.5). One flow cell was immobilized as blank for reference subtraction (without antibody). 1×PBS was used as running buffer.
Binding experiments: 1 mM stock of novel peptides of the present invention were made in 1×PBS and binding studies were conducted by passing over blank as well as ligand (anti-ANGPTL3 pAb) immobilized surface. Each cycle consisted of 120 s analyte (novel peptides of the present invention) injection at a flow rate of 10 μL/min (the association phase), followed by a dissociation phase of 300 s. Purified human recombinant ANGPTL3 (FLAG-tag, 91009-1, bps bioscience) was used as positive control (1 μM) and was analyzed under identical condition. Complete dissociation of ANGPTL3 and anti-ANGPTL3 antibody interaction was achieved by regenerating surface with 10 mM glycine/HCl (pH 2.0) for 40 s at a flow rate of 10 μl/min injection.
Data Analysis: The data was analyzed using the Biacore T200 Evaluation software. All the curves were initially reference-subtracted (from blank immobilized surface) and then subtracted from zero analyte concentration. Baselines were adjusted to zero for all curves and data was presented as Relative response or binding RU (Average of 5 s window) 5 s before end of sample injection.
Affinity of novel peptides of vaccine with ANGPTL3 antibody ANG were analysed by surface plasmon resonance (SPR), using a Biacore instrument (Biacore T200, GE Healthcare). SPR experiments were performed at 25° C. with a BIACORE T200 apparatus (GE Healthcare, Uppsala, Sweden).
As for “87 (CRFAMLDDV[Cit]ILANGLLQLGHGLKDFVHKTKGQI) [compound 87]”, the Relative response is on record as 5820.9 RU.
Still for that read-out and setting: as for “86 (CR[APPA]AMLDDVKILANGLLQLGHGLKDFVHKTKGQI) [compound 86]”, the figure is 5130.1 RU.
Still for that read-out and setting: with “6 (RFAMLDDV[Cit]ILANGLLQLGHGLKDFVHKTKGQI) [compound 6]” the figure was 6084.1 RU; with “49 (CRFAMLDDVKILANGLLQLGHGLKDFVHKTKGQI; artificial ANGPTL3 peptide) [compound 49]”, 5464.1 RU; with “1 (RFAMLDDVKILANGLLQLGHGLKDFVHKTKGQI; artificial ANGPTL3 peptide) [compound 1]”, 4832.6 RU.
As for “79 ([Cit]FAMLDDV[Cit]ILANGLLQLGHGLKDFVHKTKGQI) [compound 79]”, the Relative response is given as 6152.5 RU.
The same measure, in the same setting: with “84 (CRF[Aib]MLDDVKILANGLLQLGHGLKDFVHKTKGQI) [compound 84]” the figure was 5813.7 RU; with “80 ([hArg]FAMLDDVKILANGLLQLGHGLKDFVHKTKGQI) [compound 80]”, 5308.2 RU; with “83 (C[hArg]FAMLDDVKILANGLLQLGHGLKDFVHKTKGQI) [compound 83]”, 5895.2 RU.
Still for that read-out and setting: with “5 (CRFAM[Nle]DDVKILANGLLQLGHGLKDFVHKTKGQI) [compound 5]” the figure was 5850 RU.
On the same count and under the same terms, as for “2 (R[APPA]AMLDDVKILANGLLQLGHGLKDFVHKTKGQI) [compound 2]”, the figure is 5674 RU.
On to “85 (C[Cit]FAMLDDVLILANGLLQLGHGLKDFVHKTKGQI) [compound 85]”, for which the Relative response stood at 4924.7 RU.
Consider “82 (C[Cit]FAMLDDV[Cit]ILANGLLQLGHGLKDFVHKTKGQI) [compound 82]”, for which the Relative response came to 5518.3 RU.
Molecule “78 (RF[Aib]MLDDVKILANGLLQLGHGLKDFVHKTKGQI) [compound 78]” had a Relative response of 5539.6 RU.

For a further assay, the target named is Anti-ANGPTL3 polyclonal antibody (ABC83, Sigma). Kind of assay: SPR (Biacore T200), antibody immobilised on CM5, peptide as analyte at 1 mM.
Conditions: not given
In turn, C[Cit]FAMLDDV[Cit]ILANGLLQLGHGLKDFVHKTKGQI [Peptide of SEQ ID NO. 82 (C-Cit-FAMLDDV-Cit-…)] registered a Relative response of 5520 RU.
For the molecule CR[APPA]AMLDDVKILANGLLQLGHGLKDFVHKTKGQI [Peptide of SEQ ID NO. 86 (C-R-APPA-…)], the Relative response amounted to 5130 RU.
Turning to CRFAMLDDV[Cit]ILANGLLQLGHGLKDFVHKTKGQI [Peptide of SEQ ID NO. 87 (C-RFAMLDDV-Cit-…)], the Relative response was found to be 5820 RU.
On the same count and under the same terms, with [hArg]FAMLDDVKILANGLLQLGHGLKDFVHKTKGQI [Peptide of SEQ ID NO. 80 (Har-…)] the figure was 5310 RU; with RFAMLDDV[Cit]ILANGLLQLGHGLKDFVHKTKGQI [Peptide of SEQ ID NO. 6 (RFAMLDDV-Cit-…)], 6080 RU; with C[hArg]FAMLDDVKILANGLLQLGHGLKDFVHKTKGQI [Peptide of SEQ ID NO. 83 (C-Har-…)], 5900 RU.
The same measure, in the same setting: as for CRF[Aib]MLDDVKILANGLLQLGHGLKDFVHKTKGQI [Peptide of SEQ ID NO. 84 (C-RF-Aib-…)], the figure is 5810 RU.
For RF[Aib]MLDDVKILANGLLQLGHGLKDFVHKTKGQI [Peptide of SEQ ID NO. 78 (RF-Aib-…)], the Relative response stood at 5540 RU.
The molecule RFAMLDDVKILANGLLQLGHGLKDFVHKTKGQI [Peptide of SEQ ID NO. 1 (…)] registered a Relative response of 4830 RU.
Still for that read-out and setting: with R[APPA]AMLDDVKILANGLLQLGHGLKDFVHKTKGQI [Peptide of SEQ ID NO. 2 (R-APPA-…)] the figure was 5670 RU; with [Cit]FAMLDDV[Cit]ILANGLLQLGHGLKDFVHKTKGQI [Peptide of SEQ ID NO. 79 (Cit-FAMLDDV-Cit-…)], 6150 RU; with CRFAM[Nle]DDVKILANGLLQLGHGLKDFVHKTKGQI [Peptide of SEQ ID NO. 5 (CRFAM-Nle-…)], 5850 RU.
The molecule CRFAMLDDVKILANGLLQLGHGLKDFVHKTKGQI [Peptide of SEQ ID NO. 49 (…)] yielded a Relative response of 5460 RU.
C[Cit]FAMLDDVLILANGLLQLGHGLKDFVHKTKGQI [Peptide of SEQ ID NO. 85 (C-Cit-…)] returned a Relative response of 4920 RU.
